Columns and labels:
[1] = molecular target: human CD33 (human) (UniProt P20138); test: flow cytometry, human primary monocytes
[2] = molecular target: human CD33 (human) (UniProt P20138); test: cell-based or functional assay
[3] = molecular target: human CD33 (human) (UniProt P20138); test: flow cytometry, human primary dendritic cells
[4] = molecular target: human CD33 (human) (UniProt P20138); test: flow cytometry, human primary macrophages
[5] = molecular target: human CD33 (human) (UniProt P20138); test: flow cytometry, human primary T cells

Sequence of human CD33 (human) (P20138 18-364): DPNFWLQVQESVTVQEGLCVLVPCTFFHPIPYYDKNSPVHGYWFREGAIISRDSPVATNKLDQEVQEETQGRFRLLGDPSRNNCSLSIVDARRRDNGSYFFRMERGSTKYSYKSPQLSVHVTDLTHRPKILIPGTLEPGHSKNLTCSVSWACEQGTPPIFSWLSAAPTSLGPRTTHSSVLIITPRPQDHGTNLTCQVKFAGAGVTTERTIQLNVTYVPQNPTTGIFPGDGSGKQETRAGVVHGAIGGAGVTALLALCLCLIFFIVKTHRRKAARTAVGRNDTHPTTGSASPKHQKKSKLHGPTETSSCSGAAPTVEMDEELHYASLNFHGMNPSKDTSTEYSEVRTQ

B1: C-51 (antibody, V domains shown)
VH: QLQLQESGPGLVKPSETLSLTCTVSGGSISSSSYYWGWIRQPPGKGLEWIGSIYYSGSTYYNPSLKSRVTISVDTSKNQFSLKLSSVTAADTAVYYCARGAPHDYGGGVGWFDPWGQGTTVTVSS
VL: DIQMTQSPSSVSASVGDRVTITCRASQGISSWLAWYQQKPGKAPKLLIYAASNLQSGVPSRFSGSGSGTDFTLTISSLQPEDFATYYCQQSRVFPWTFGGGTKVEIK
[1]
  Monocyte MFI: 126
[2]
  Percent CD33 Surface Expression, DC % CD33: 86%
  Percent CD33 Surface Expression, Monocyte % CD33: 88%
[3]
  DC MFI: 496
[4]
  Macrophage MFI: 656
[5]
  T cell MFI: 29.3

Source: patent publication US20220281976A1
